In the data set the test system is E. necator. Kind of data set: Leaf disc assay, dry inoculum (settling tower), decrease in disease severity / hyphal growth (Example 2). Conditions: decrease in disease severity (hyphal growth) relative to untreated control, value ± SE; for % decrease =/− SE TP1: time point 1 (untreated control hyphal growth ≥50%); for % decrease =/− SE TP2: time point 2.

B1: GS1874: dsRNA trigger SEQ ID NO 120; gene target eka-like_protein (nucleic acid)
chain: CTAGAGCAGCCACGTGTAGCATGAAACCCATGACAACGTTTGCATTGTTGTATTGGTTGGCATGGTTTGTACAGTATAGCGACTCCTGATTCGTCGAATAGTCGGAATCCGGGTCATGGAGCTTGTTCTCGGGAAAAATGTGCCAGCCAAGAGCGATGTGGAGCACCAGAACGAGTCTTACCATGTACCCTAACCATCTTAGGCGCAAAGTTAGTGACTTTGATAATTTCGGCTACAAGGTTAGTATCGTCGACTGTCACACTTCCACTAGAAGTTTGACGGGCAACGGGAACAGTTGCAATACGATATGTAATAAGATCAGACGCCGGTTCTAGCTTGGCACCCTGAAAAGATATTCTATCACTGTCATTTAGTAGCTTTTGCCTTATCTCCTTTTCTTTGATAGTAAGTGCGAAGCCAGTGGGGGTTCGAGCGATGAGCGTCACATCAGATGGTACACAATTTAGATTTTTGCACAATATTT
For the molecule B1, the “% decrease =/− SE TP1” value is recorded as 25 ± 4% and the “% decrease =/− SE TP2” value amounted to 14 ± 5%.

B2: GS1869: dsRNA trigger SEQ ID NO 166; gene target General alpha-glucoside permease (nucleic acid)
chain: CGGCCCCATCGAACCATACTTTTTGCAAAAAGATGGCATCGCATAGAATTGAGCAAGCAAGAGATTATCGTAACCTTCCATAATAATACCAGTTGAGATAGCAACACTATAAACAGCAGCTGGCCACCACAATTTTAGAGCTTCGTTGACAGTCATATTCTTTTCAAGCTCTTCCGCACGATGGGCACCCTGAGTGGTATAGTACTGACTCTTTTCCAAAGAAGGAGCTCGGCCAATGTCCTCCTCATGCTTGGCAGTAGTTTCAAGAATGGACTTGTCGATAATAGACATTTTGAGAGTTGAGAAGTCAAAAAAATTTTGAAGTAAAGATCAGACTAAAGGTGAGTTTGGGGATTTAAAAAAAGAATATTAGGGTAAGGTTATGATTGAGTTCACAAGGGAATAGGTTTTCTAGAAAGAGCATGAAGGAAAGACATAAAACCTGAGAGTGATATTTGGATAATTTTGAATTCCATCGTCAACAGCTTCGGGAGACAAGTCTTTATAGAATTCTGAT
In the case of B2, the “% decrease =/− SE TP1” value amounted to 21 ± 7% and the “% decrease =/− SE TP2” value came to 17 ± 7%.

B3: GS1868: dsRNA trigger SEQ ID NO 177; gene target Glycine-rich RNA-binding protein 4, mitochondrial (nucleic acid)
chain: TGCCCCATGAGAGACCGCCAATAAAGAGTTTAGGCATTCTGTATGTTAATTTTTATCCTCGCGAACCTGGTATAAAGTCTTAATCTCCGCGTGCATCCTTGAATAAAATGTGACAACGCCATCGAGTTTGAGAGGGAGAGAGAAAGTGGATACGGAACAGTTAAAGAAAAGTACATCGGGATATAACAAAACCTCCGTGTAGCATACAAATGAGGGGACGATGAATATATTTGTTTGCTTGGTGAACAGGCCGGGGAGGATTGGGATGAAGTAATGTTAGTACACACTGTCAGAGAACTAACGAACTTCTAGTGAGTTGCTCAAGAAGAGCAAAGTGCTGCGTTTATAGGGAGACCTGATGAACTTTATTAATTCGGTTTGGAGGAGCAATTTTTATAATGGACTGGAGTAACCGATCAGTCAATTTCGTGATAGAACTATTCTTCCGCAAATTGAGACGCAAAAGCTCTCTGATTGTGATGACAAGAGTTTTGCGGGTCTCAATAAAGGAATTGATGTTT
Consider B3, for which the “% decrease =/− SE TP1” value amounted to 1 ± 6%.

B4: GS1870: dsRNA trigger SEQ ID NO 170; gene target Myosin-24 (nucleic acid)
chain: ATTTCTCATTCGCGTAGTTGATACAGAATTGCTCGAATGAGTTTTTTGCAAAGTGTTCGAATCCATAAATATCTAAAACTCCTATAAATGACTTGACACGGCTTAAGACTTCTTCAGCAGCCAACGCATAATTGATATTTTCAACAAGCCAGTCAAAAAGACTTGAATAAACAAATTTAGCGACCGAATCTCGAACAACAATGGCTTGCTGTTGGCTTAAGCTACTAACGACTTTATCTCCCCGGGTAATTAATTGCTTCTTGACTGTCCATCTAGCAAATTCCACCGGATCAATGCCCAAAATTGAAGCAGCAATCTCTAGAGAAGGCTCATTAGGAGTAAGTGAAGATTCATTTCTTGTGGCAGTAATCTTAACATTTCCAAGATGTAGTAATGCTGCAAGTATTTTAAATATTTCGGTCTGCTGATCCTGTTTGACTCCAATTGTTGCTAGGGACTTTTTGAGTGCTTCGAATTCGGCTTTATCATCAACTCCATCTATTGAAGGTGA
With B4, the “% decrease =/− SE TP1” value amounted to 11 ± 5% and the “% decrease =/− SE TP2” value came out at 13 ± 8%.

B5: GS1884: dsRNA trigger SEQ ID NO 187; gene target Peptidyl-prolyl cis-trans isomerase ssp-1 (nucleic acid)
chain: TAATACTTCATCTGGAAGCCATCGAGTTTGCTTTTTATTATCTGAATTTTTGAGGCATTAAACTACAATACCTATTAAGGTTCAATTCAACGTTACAGTATGTAGCAGTAAATATCATTTTTGGTATAAGAATAAAAATATTCAAATTTTTACCGAAAAAAATGAAGCAGTAAGTCATATTTCTGGGTCAAGTCTCTGTAAGTCTTGCGCATCAAGCTTGCAATTGAGACTCCAAATGTGACTGGATATGTATATATATATATATATGGTGTTATAGTTGTCAAATCGAATCTATTCTATTCTTTGAATCAGATGTAGACCAGATGCTGTTTCTATGATTTGACTCATTTCTCCAACTTTGAGTTCGAATGCAGCATCTTCGAATTCTTTCTGCATATCACCTCTACCAAAGAAACCAAGGTCACCTTGTTTTTTAGCACTATTGCAATCAGACTC
Turning to B5, the “% decrease =/− SE TP1” value was determined as 12 ± 4%.

B6: GS1876: dsRNA trigger SEQ ID NO 210; gene target Uncharacterized transcriptional regulatory protein YKL222C (nucleic acid)
chain: CGCGTTCATAAAATATATCTTCATAATCAGCGTATTTAGGTGAAAGTGTAGTAGCCAATGTCCACATGGCATAGCATAGACAAATTGGAGGACGGGTCTGAATTGGACGTTCCAAAGACATGTAAAACCGGGCTTGATGTATGATGGGCATTGAAGGGTGATAGAGAGTGAAGTAGATATGATATAATTCTTTAATCATATAATCAGGCGGTAATGGTTCTTGAAGACCTAAGCTTAGTAGCTCTTTATTGATATTTGATGTAGTTTCTTTAGGCATCTGGGAGAAGCCTGAAATAGGTGGCGACGTTTCAATGGATGTAAGAAGAGGCCTACCATCAATTGCCAAATTCAAATCTATACCCATATTCCAATTTCTTTCGAGCCGGGGAGCTGCAGCATCGGGACTTATGATATCGCATTTTCCTTCCGAGTTGAGTCGAGTCTCCAATTGAGCTAGCCTAGCTTCAATTTCTTTTTCTTT
Turning to B6, the “% decrease =/− SE TP1” value came to 20 ± 6% and the “% decrease =/− SE TP2” value came to 10 ± 8%.

B7: GS1873: dsRNA trigger SEQ ID NO 153; gene target Probable serine/threonine-protein kinase fhkC (nucleic acid)
chain: CACATCGAGATATAAAACCCGAAAATATACTTCTCATGAATAGAACTCCTACTATTAAATTAGGTGATTTTGGCTTGGCCAAGATCGTTGGTGAGGAATCATTCACAACAAGCTTATGTGGAACACCCAGTTATGTTGCACCAGAGATCCTTGAAGACTCAGATAATCGGCGTTACAATCGAGCTGTTGATATTTGGGCTCTAGGTGTTGTTCTTTACATTTGCCTCTGTGGCTTCCCGCCATTCTCTGATGAATTGACCAGTAATGATTATCCTTACACTCTTGTCCAGCAGATTAAAATTGGTCAGTTCGACTTCCCATCGCCATATTGGGATAATATAGGAGACTCAGCTCTTGACCTCATTGACAAAATGTTAACAGTAGATGTTAACAAACGCATTAATATTGATCAATGTCTTGAACATCCATGGCTAACTCAAAGAGAATCAACGACTTTGCCAGGTGATTACTCTGAAGTTCTTGACGAACTT
As to B7, the “% decrease =/− SE TP1” value was determined as 4 ± 4%.

The values above are taken from patent US12077763B2, “RNA-based control of powdery mildew” (Greenlight Biosciences, Inc., priority 2021, dated 2024).
